Experimental data as given in patent publication US20250034594A1, “RNA-GUIDED GENOME RECOMBINEERING AT KILOBASE SCALE” (THE BOARD OF TRUSTEES OF THE LELAND STANFORD JUNIOR …, priority 2021, published 2025).

Tests used:
Assay type in all cases: cell-based
[1] = test system: gene editing with Cas9; test: Screen of 322 new SSAP proteins, gene editing activity with Cas9 (Table 5); set-up: Cas9 with SSAP activity: scale not given here
Method in brief: (§1)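 Read-out is gene editing activity. Candidates come from sequence data mining, are made synthetically, and are tested alongside either nuclease-active Cas9 or catalytically dead dCas9.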

[2] = test system: gene editing with dCas9; test: Screen of 322 new SSAP proteins, gene editing activity with dCas9 (Table 5); set-up: dCas9 with SSAP activity: scale not given here
Method in brief: as §1

[3] = test system: gene editing with Cas9 and dCas9; test: Screen of 322 new SSAP proteins, activity across all experiments (Cas9 and dCas9, Table 5); set-up: scale not given here
Method in brief: as §1

B1: SSAP_276: SEQ ID NO: 445; Oceanobacillus sp. Castelsardo (protein, listed as Oceanobacillus sp.)
chain: ATNSTLKNQISNKKQGNNQVGKTQGTTMKQLLASPAVMNRFEEVLGKRANQFTASILGLYNSEKMLQKAEPMSVISSAMIAATLDLPVDKNLGYAWIVPYGGKAQFQMGYKGYIQLALRTGQYRNINVIEVYEGELKKWDRLTEEIELDFESRTSDKVIGYTGYFELINGFRKTVYWSKEDVEKHKKRFSKSDFGWKNDWDAMARKTVIRNMLNKWGILSIDMQKGMVEDSKDPVEVNEEFSSDVIDADYEVVGENEQQDFTVEENA
For B1, the “Cas9 with SSAP activity” value [1] was −2.551, the “Cas9 with SSAP activity (normalized)” value [1] was −0.452 and the “dCas9 with SSAP activity” value [2] was −2.052. For the same molecule, the “dCas9 with SSAP activity (normalized)” value [2] was −0.337 and the “Activity across all experiments” value [3] was −2.301.

B2: SSAP_287: SEQ ID NO: 456; Leifsonia xyli subsp. xyli str. CTCB07 (protein, listed as Leifsonia xyli)
chain: AVKKNPTIEDYLIKYEPEFQRALGASMDAAKFAQDALTAIKQNPKIGHSDPRSLFGALFLAAQLKLPVGGPLAQFHLTTRTVKGNLTVVPIVGYGGYVQLIMNTGLYSRVSAFLIHAGDYFVTGANSERGEFYDFRRADSDRGEVKGVIAYAKVKGHNESSWVYIDAETMRAKHRPKYWESTPWADDAGEMFKKTGIRVLQKYLPKSVESLNVALAASADQAIVRKVDGVPDLDIQHDRDTETVAVPEQPVSVPQPGDET
B2 was tested, and the “Cas9 with SSAP activity” value [1] was 0.085, the “Cas9 with SSAP activity (normalized)” value [1] was 0.091 and the “dCas9 with SSAP activity” value [2] was −2.044. The “dCas9 with SSAP activity (normalized)” value [2] was −1.493 and the “Activity across all experiments” value [3] was −0.980.

B3: SSAP_295: SEQ ID NO: 464; Pseudoalteromonas (multispecies) (protein, listed as Pseudoalteromonas sp.)
chain: SLSLQEYQNLLYGKLTACKGQFDACLSENGYKLDFNTELNYVYQIVMSGLNVEYSFPYTPVESVITSFLKAAKIGLSLCPTEQLCFLKTEYSESSGQYVTQLGLGYKGILKLAYRSGKVKQINANVFYEKDNFQYNGVNSKVTHTTTVLSKAMRGQLAGGYCQTELIDGSFKTTVMPPEEILAIEEQGKAMGNEAWLSVHVDQMREKTLIKRHWKTLCPCIYRDSVMNDPMLFDDQDCQHSSNQQAYEEQFESAYSREAY
With B3 the “Cas9 with SSAP activity” value [1] was −2.337, the “Cas9 with SSAP activity (normalized)” value [1] was −0.343 and the “dCas9 with SSAP activity” value [2] was −2.038. For the same molecule, the “dCas9 with SSAP activity (normalized)” value [2] was −0.267 and the “Activity across all experiments” value [3] was −2.188.

B4: SSAP_143: SEQ ID NO: 312; Staphylococcus chromogenes (protein)
chain: ANAKEFKKQMNSKNEVAETNNAPQKAKGPRQQVSDLLDRMAPEIQKALPNNMSAERMARIAMTAVSSNPKLLECDPKSFIGALMQASQIGLEPNTALGQAYLIPYGNQVQLQLSYLGLIELATRTGQYKAIYAHEVYKDDEFSYEYGLYKNLIHKPVDDPNGEPIGYYAVYHLMNGGYDFAYWTRKKVEAHAQQYSKAVQQGWNSPWKSDFNAMAKKTVLKDLLKYAPKAIEVSQAIGSDSKVSEINDEGEIIDVTDYSQEEEK
modifications: Staphylococcus chromogenes
In the case of B4, the “Cas9 with SSAP activity” value [1] is reported as −0.553, the “Cas9 with SSAP activity (normalized)” value [1] is reported as −1.314 and the “dCas9 with SSAP activity” value [2] is reported as −1.842. The “dCas9 with SSAP activity (normalized)” value [2] was −1.900 and the “Activity across all experiments” value [3] was −1.198.

B5: SSAP_302: SEQ ID NO: 471; Clostridium saccharobutylicum (protein, listed as Clostridium saccharobutylicum)
chain: ATNSSLKNQLIEKEQTTVNVQETMFKNLINSDDVKSKFTEVLKDKAIQYINSIINLVNSDKDLIECEPKSIIDACMSAVSLDLSVDKNLEYVEIIPYKKKANFQLGYRGYIQLLLRTGEYKSVNIIEVYEGQLKSWNQLAEEFDIDFTYKKSDAVIGYAGYFEMLNGFRKSVYWSKENMDALRENSFKSDTRWNNDYKAMAKRAVIRNMISKWGSLSIEMEKAYCEDLNTDKFVNGN
With B5 the “Cas9 with SSAP activity” value [1] was −0.842, the “Cas9 with SSAP activity (normalized)” value [1] was −0.289 and the “dCas9 with SSAP activity” value [2] was −1.946. The “dCas9 with SSAP activity (normalized)” value [2] was −0.772 and the “Activity across all experiments” value [3] was −1.394.

B6: SSAP_93: SEQ ID NO: 262; Morganella morganii (protein, listed as Morganella morganii)
chain: SNPPIAQADLQKAQGTAVKEKTKDQQLIQFINQPGMKAQLAAALPRHITPDRMIRIVTTEIRKTPSLATCDMQSFIGAVVQCSQLGLEPGNALGHAYLLPFGNGKAASGQSNVQLIIGYRGMIDLARRSGQIISISARTVREGDSFHFEYGLNEDLTHVPGENDSGPITHVYAVARLKEGGVQFEVMSFSQIEKVRDSSKAGKNGPWVSHWEEMAKKTVIRRLFKYLPVSIEMQRAVILDEKAEANVDQEHASIFEGEYETVSPE
With B6 the “Cas9 with SSAP activity” value [1] was 0.714, the “Cas9 with SSAP activity (normalized)” value [1] was 1.299 and the “dCas9 with SSAP activity” value [2] was −2.015. The “dCas9 with SSAP activity (normalized)” value [2] was −0.557 and the “Activity across all experiments” value [3] was −0.650.

B7: SSAP_223: SEQ ID NO: 392; Haloactinospora alba (protein, listed as Haloactinospora alba)
chain: GQSVTNAVAQRDTSPSGMVGKYRDDFAQVMPSHVNGAGWVRIAQGILRRDAKLAEAARNAPQSLMSALMDAAQQGLTPGTTEFYLVPRKRKGSLEVQGITGYQGEIELIYRAGAVASVVAEIVHEHDTFEWIPGKHERPIHEADWFGNRGTMVGAYAYAVMNSGSTSKVVILNQHDIEKARAMSDGADSSYSPWQKWPESMWLKTAAHRLAKWVPTSAEYRHEQERARARSEDTEIPASPDSDVVHAEIVEENDDEQAT
In the case of B7, the “Cas9 with SSAP activity” value [1] is reported as 0.236, the “Cas9 with SSAP activity (normalized)” value [1] is reported as 0.173 and the “dCas9 with SSAP activity” value [2] is reported as −1.928. For the same molecule, the “dCas9 with SSAP activity (normalized)” value [2] was −0.948 and the “Activity across all experiments” value [3] was −0.846.

B8: SSAP_162: SEQ ID NO: 331; Helcococcus sueciensis (protein, listed as Helcococcus sueciensis)
chain: AQAKELLENKTNNTVKKSEKQTMENLLTLMADEIKKALPENVKSERFRRIALTAFNGNKDLQQCEPTSFLAAMMQSAQLGLEPNTPLGQAYLIPYNNSKKNIKEVQFQVGYKGMLDLAHRTNQYKNIQANIVYEKDEFDIEYGLNPKLKHIPNMKEDRGQAIGYYAVYNLINGGQGFEYMTRAEVEKHAQKFSKTYRNGPWQTDFDEMAKKTVLKKVLKYAPMSTELQEATAIDERVVNEENIKSKNEDKFVDVDWSYVDDVEEDVIE
B8 was tested, and the “Cas9 with SSAP activity” value [1] was 0.273, the “Cas9 with SSAP activity (normalized)” value [1] was 0.278 and the “dCas9 with SSAP activity” value [2] was −2.073. For the same molecule, the “dCas9 with SSAP activity (normalized)” value [2] was −1.380 and the “Activity across all experiments” value [3] was −0.900.

B9: SSAP_263: SEQ ID NO: 432; Gulosibacter molinativorax (protein)
chain: TDLTEKIATKAVAVKKDPKIADLMKSYEPQFARSLGKSMDAAKFGQDALTAIKQTPKLLEADQRSLFGAIFLAAQLKLPVGGPLAQFHLTPRKVAGEMTVVPIIGYNGYIQLAMNTGLYSKVGAFTVHANDHFRTGANSERGEFYDYERATGDRGELTGVIGYAKVKGFDESSFVYLDAATVRERHRPKFWDKTPWASDEGEMFRKTAIRVLQKYLPKSIEAAPLALAAQADQATVRRVDGVDDLQIDHEDIAIAEVIEDD
modifications: Gulosibacter molinativorax
For B9, the “Cas9 with SSAP activity” value [1] was −1.201, the “Cas9 with SSAP activity (normalized)” value [1] was −0.666 and the “dCas9 with SSAP activity” value [2] was −2.069. The “dCas9 with SSAP activity (normalized)” value [2] was −0.685 and the “Activity across all experiments” value [3] was −1.635.
